# Assay results: the RNAGym collection of RNA variant scans (doi:10.1073/pnas.2313332121)
# Variants at the floor of the assay were thinned out.
# B1: TPR 5TU (parent)
# chain: GGAUCUUCUCGAUCUAACAAAAAAGACAAAUCUGCCACAAAGCUUGAGAGCAUCUUCGGAUGCAGAGGCGGCAGCCUUCGGUGGCGCGAUAGCGCCAACGUUCUCAACUAUGACACGCAAAACGCGUGCUCCGUUGAAUGGAGUUUAUCAUG
# Variants of: B1
# Assay: polymerase ribozyme fitness, log enrichment relative to wild type (log ratio); higher = more active; in vitro selection for triplet polymerase activity
# Method in brief: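 Streptavidin-bead capture of gel-excised extended constructs, followed by RT-PCR, closed a single triplicate in vitro selection round. That round began by annealing PCR-built, transcribed mutant libraries of each subunit of a heterodimeric triplet polymerase ribozyme with a biotinylated primer, the partner subunit and triplets, then incubating them frozen at −7 °C. After Illumina sequencing of inputs and outputs, genotypes needed ≥10 input reads and ≥1 read per output. Fitness is the base-2 logarithm of genotype enrichment over wild-type enrichment, using inverse-variance-weighted replicate averages.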
row,Variant,polymerase ribozyme fitness (log ratio)
1,G68C G83A,≤ -4.2
2,G68U G94C C95A A115U G136U,≤ -4.2
3,G71A C85U C96A A107G C118A,≤ -4.2
4,G71A C85G C87U,≤ -4.2
5,G70U C85U G88C U145C,≤ -4.2
6,G68C C85G G136C,≤ -4.2
7,G68C G83U G133U A137C,≤ -4.2
8,G70A G84U C116A,-4.13
9,G67C C93G C118G A150C,≤ -4.2
10,G70C C96U G100A C118G A120C,≤ -4.2
11,G68A C87U C114A U144C,-4.11
12,G70U U139G,-2.93
13,C69U U78A A97U G143C,≤ -4.2
14,G68C C85U,-3.93
15,A64U A121C G143A,≤ -4.2
16,G70A G74C C125G U144G,≤ -4.2
17,A64U U148G,≤ -4.2
18,G70C G88U A91G C95A A119G U144C U148C,≤ -4.2
19,C69U C76U A97U U109G G112C C125A,≤ -4.2
20,G68A C85G,≤ -4.2
21,G68A C85U,-3.48
22,C69U G84A A106C,-2.41
23,G70U C87A A115U C116A U151A,≤ -4.2
24,G65C G68A G83A A115U G140A,≤ -4.2

row,Variant,polymerase ribozyme fitness (log ratio)
1,G65C A66C G81A C85G A121G,-4.16
2,G68U C85U U144A,-4.15
3,C69G A119U,-1.72
4,G67A A91G U135G C149U,≤ -4.2
5,G70A A147U,-2.67
6,C69U G71U C87U A89C,-3.31
7,G65C U90C,≤ -4.2
8,A66C G92C C96G A120G,-4.14
9,G68A G88A C96G C118A G126A,-4.16
10,G65A C69G U78A U90G C96A G100A C108A U145A,≤ -4.2
11,G67A C114U U134G A150C,≤ -4.2
12,G70C U134G,-4.17
13,G70A A122U,-3.6
14,G68A C79U U139G U146C,≤ -4.2
15,G70C G136C,≤ -4.2
16,G65U C72A C85A U135G,≤ -4.2
17,G71A A91U U146G,≤ -4.2
18,G68A C85U A97U A107U G128A C132U,≤ -4.2
19,G67C G68A C85U C99A A115U,≤ -4.2
20,G67U C87U,-3.88
21,A66U A89G,≤ -4.2
22,G68A G88C A110C U135C,≤ -4.2
23,C69A G84A U104G C125U G126A A142C,≤ -4.2
24,G65U G71C A73U A122U G126A A137C U146A,≤ -4.2

row,Variant,polymerase ribozyme fitness (log ratio)
1,C69A G83A G143U,-3.59
2,A66G U111C,≤ -4.2
3,G67U C85G,≤ -4.2
4,G71A G80U C85U,≤ -4.2
5,C69A,-1.57
6,C69U,-1.03
7,C69G,-1.51
8,C69U C75U G92A U104G G133U C149U,≤ -4.2
9,G70A A73U G133A U135G,≤ -4.2
10,G68C C103U,≤ -4.2
11,G67U G94C A119C U134G A147C,≤ -4.2
12,G68U C75A G81U G83A C95U C96U C116U,-1.31
13,G68C G88U U104G C114U U127C,≤ -4.2
14,G65U A73G G141A,≤ -4.2
15,C69U G126A,0.958
16,C69U C118U,-1.4
17,A66G C93A C95A C96U C116U,≤ -4.2
18,G71A C96A,-3.18
19,C69U C132G G140U,-1
20,G71A A91U C95G A119U A121G C129A A147G,≤ -4.2
21,G65U G94A,≤ -4.2
22,C69A A91G,-3.81
23,C69A A91U,≤ -4.2
24,G70A G84A C87G A113C A120G,≤ -4.2

row,Variant,polymerase ribozyme fitness (log ratio)
1,G70A A110G A142G,-4.14
2,C69G G86C A121C,≤ -4.2
3,A66C C69U C96U,≤ -4.2
4,C69U C76G,≤ -4.2
5,G68A,-3.29
6,G68U,-3.71
7,G68C,-3.92
8,C69A C75U A106G A120G,-2.33
9,C69A G81U G84U,≤ -4.2
10,G67U G83U U101G,≤ -4.2
11,A66C C85G G141A U146C,≤ -4.2
12,G67A A98U U139C U148A,≤ -4.2
13,A66G U82G C93A,≤ -4.2
14,C69G G88A U90G U146A,≤ -4.2
15,G67C G68A G83A U90A G117A,≤ -4.2
16,G68C A91C A106U U127A,≤ -4.2
17,G67U C93U,-3.74
18,G70A G88C C96G U134G,≤ -4.2
19,G65A C93U,-1.96
20,A66G U102A U135C,≤ -4.2
21,C69G C103G C116U,-2.03
22,C69G C85A G94U,-1.01
23,A66C G74U G81C C87A C118A G124A,≤ -4.2
24,G68A C93U,-4.04

row,Variant,polymerase ribozyme fitness (log ratio)
1,G65C C99G,≤ -4.2
2,G70U G81A,-2.35
3,G68C U78A,≤ -4.2
4,G70U G84U C87U G100A,≤ -4.2
5,A66C C85G,-4.16
6,G68A C96U C132G,≤ -4.2
7,G70A G83U C105A A147C U148A,≤ -4.2
8,C69G A106C A137C,≤ -4.2
9,C69G C76G C96A A138G,≤ -4.2
10,C69G C72U,-2.71
11,C69U C95U,-1.47
12,A66G C85U U111G U146A,≤ -4.2
13,G70C G83C C105U C125U,≤ -4.2
14,A66G A106G U139A,≤ -4.2
15,G67C A97C C103G C125U C129U A142U G143C A150U,≤ -4.2
16,G70C G84U A107U,≤ -4.2
17,G67U A120U,-2.15
18,A66G C93U A107U A138U U139A,≤ -4.2
19,C69G C99A A115G,-3.71
20,C69A A119U,-2.7
21,G68C C99G A106G C129U,≤ -4.2
22,C69A U101G G126A,-0.681
23,G68A C123U,-3.89
24,G65A C105U,-0.804

row,Variant,polymerase ribozyme fitness (log ratio)
1,A66C G84A C87U,≤ -4.2
2,C69U C85A,-3.16
3,C69U C85G,-2.16
4,G70A A97G,-3.26
5,G70A A97U,-3.59
6,G70A G88C U144C,≤ -4.2
7,G70U C76A,-4.19
8,G68A U139C,≤ -4.2
9,G68A C93G C129A U130A,≤ -4.2
10,G70A C87U A106G,-2.89
11,G67C C87A G100A,≤ -4.2
12,C69U G100A A137C,≤ -4.2
13,C69A G70A,-4.19
14,G65A G67C G92A,≤ -4.2
15,A66U C76G C85A C95U U102G A113U C116A A142C,≤ -4.2
16,C69A A73G,-2.98
17,A66G U77A G83U U104A G117U,≤ -4.2
18,G70C G86A C114U A115G G143U A150C,≤ -4.2
19,C69U G70A C99A G100A,≤ -4.2
20,G70A G100C,≤ -4.2
21,G68U C103U G141C,≤ -4.2
22,G67A C85G A106G C129U G140C G143A,≤ -4.2
23,G67C G71C G86A A107U A121U U144G,≤ -4.2
24,C69A A73G G92C,-1.54

row,Variant,polymerase ribozyme fitness (log ratio)
1,G67U U146C,-2.47
2,G68C G84A C85A,≤ -4.2
3,G67C G88C C116G A122U G128U U144A,≤ -4.2
4,G67C G84A C99U C105A A115C A137C G141A,≤ -4.2
5,G70U A73U A89G C95G G141U,≤ -4.2
6,G67C C93U A107C C125G,≤ -4.2
7,A66G A73U G81A G92U U111C,≤ -4.2
8,C69U G128C U130C C132G U135A A138C,≤ -4.2
9,G70A G141A,-3.46
10,A66C C76U U82G C85G C125G,≤ -4.2
11,A66C A73G G80C C114A G141A,≤ -4.2
12,G67C G83A C123G,≤ -4.2
13,G67C C69G A91U,≤ -4.2
14,G68U C79A U102G A119G,≤ -4.2
15,C69U C87A G141U G143A,≤ -4.2
16,C69A G143U,-3.34
17,G70C G92U,-3.01
18,C69A G94C,-0.673
19,G65C A89C G92A U102G C116U A137G,≤ -4.2
20,G68C C79A G83U U101A U104C C108G A142G,≤ -4.2
21,C69U C116G,0.325
22,G70C G88U A97C,≤ -4.2
23,C69U G84C C132G G143A,≤ -4.2
